Data on 1 substance can be found in paper doi:10.1101/2023.06.06.543836.

This assay has as its target CXCL12 (chemokine (C-X-C motif) ligand 12) (UniProt P48061). Briefly: NMR titration.

Sequence of CXCL12 (chemokine (C-X-C motif) ligand 12) (P48061 22-89): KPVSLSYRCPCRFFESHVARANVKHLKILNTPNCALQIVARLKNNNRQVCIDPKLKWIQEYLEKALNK

“Ac-pep (synthetic peptide corresponding to the HMGB1 acidic IDR) (from UniProt P63158 186-214)” showed a Kd of 200 nM.

Broadly, the Kd is the constant that tells how readily two partners part at equilibrium. A lower Kd goes with a tighter complex.
